Experimental findings from the DeepSol protein solubility set are described below.

This data set can be described thus: soluble on expression in E. coli; label from the status in PepcDB or PDB records.
Turning to “MLEESKNALRVFITGNPGVGKTTILLFLINKLSENNYKVAGFYCPEVRENGRRIGFRIVDITTNEGDWLAKENAPGRVKIGKYTVLEDSAKRITEITLSNINKADVLAIDEIGPMELKIPTIKKLIETILNNQKPLIAVLHRTQKPMGGRIYVITVENRDSIKYEILNYILSSLD”, the “soluble on expression in E. coli” value is given as “soluble”.
As for “LQQFLDALASSPEKIEFETTMAVIEDNYDFTPAAFTNGNTQNDANENNGSCKIFAFGLLNALDKEATLACFGRFYREDVLLHPENNDHQNIRNFMVTGWEGIQFETSALTAK”, the “soluble on expression in E. coli” value is “not soluble”.
For the sequence “MEYHLRTKLNGNIAMTSCFHENSFLQCDRSLYKFIWVRHGALDVEVDHVVMHLEKEEMISLTPLHHVQIRGVDGEYLTFLFNSNFYCIYGHDSEVSCNGFLFNGSSRVMRLKLSPSQSARLDSIVDIFRGECGIQDNLQEEMLRIILKRFIITCTRIAREKFDVDPGRENMFDVIRQFYVLVDSHFKEKKQVQDYADMLCRSPKTISNLFSLYGLSSPLRVIHERVDAEAKRLLLYTGKSAKEISEILGFEDLATFSRFFKKMNKESLSEYRKREKRE”, the “soluble on expression in E. coli” value is recorded as “not soluble”.
As for “MTQNTKLRPITPEFDPWEAYMDVDQYGDMQLTNVEFTTTTLCNMRCEHCAVGYTLQPKDPNALPIDLLLKRLEEIPRLRSISITGGEPMLSLKSVKEYVVPLLKYAHERGVRTQINSNLTLDIERYEWIIPYLDVLHISHNWGTVEDFAEIGFA”, the “soluble on expression in E. coli” value is “not soluble”.
In the case of “MGSDKIHHHHHHMYTREELMEIVSERVKKCTACPLHLNRTNVVVGEGNLDTRIVFVGEGPGEEEDKTGRPFVGRAGMLLTELLRESGIRREDVYICNVVKCRPPNNRTPTPEEQAACGHFLLAQIEIINPDVIVALGATALSFFVDGKKVSITKVRGNPIDWLGGKKVIPTFHPSYLLRNRSNELRRIVLEDIEKAKSFIKKEG” it was “soluble”; in that of “SSSISELYDVTWEEMRDKLRKWREENYRNSEQIVDVGEELINEHASKLGDDIWIIYEQVMIAALDCSRDDLAWSCLQELKRQFPDSHRVKRLAGMRLEALERYDDANKLYDSILQDDPTNTAARKRKICILRAQGKSSEAIRELNEYLEQFVGDQEAWHELSELYINEHDYAKAAFCLEELMMTNPHNHLYCEQYAEVKYTQGGLENLELARKYFAQALKLNNRNMRALFGLYMSASHIAASPKVSAKVKKDNVKYAAWAAAQISRAYQMAGRGKKENKCSVKAVEEMLESLQITMS”, “soluble”; in that of “MAHHHHHHMNPHPVEPRDQIAELLVESPLFSFNCAHFIAFKGFRETLHGHNYNVSLRLRGNIQGDGYVIDFSILKEKVRKVCKQLDHHFILPMYSDVLNIQEVNDNFKITCEDNSEYSFPKRDCVQIPIKHSSTEEIGLYILNQLIEEIDLPFLKTRSVNYMEVTVSESPSQKATVHRNI”, “soluble”.
Consider “MKKPTSAPRSKAFGKQRRKTREELNQEARDRKRLKKHRGHAPGSRAAGGNSASGGGNQNQQKDPRIGSKTPVPLGVTEKVTQQHKPKSEKPMLSPQAELDLLETDERLDALLERLEAGETLSAEDQAWVDAKLDRIDELMQKLGLSYDDDEEDDEEDEKQEDMMRLLRGGN”, for which the “soluble on expression in E. coli” value was “not soluble”.
With “MGSDKIHHHHHHMTANEKKDLAHARVSASDGADAWVRFTVAGKRFDMPVVINASTRSLGASIIVNRMLSRRAPNDARPLMLVTQHITSRMADDLIAKGIPFLDTAGNAYLHEPEATIMIVGRDKPALNLKNPTSRSTTPKGLRVTFALLTQPGLVHAPYRTIADRSAVALNTVNLAMDDLIYRGLVVHKGARRVIADRRRLIEEWASLFPTRLRPKLSPCRFTSWTKESNWWSRPEILDIDARLGGEAGADILTHEIKPASLTIYSHRGITPRLMLNGMLRPDDRGNVEVLETFWPAKAEEGWNLPHREVVHPLLIYSDLITSGDDRNRAVAQTIYDRYLAKERA”, the “soluble on expression in E. coli” value is listed as “not soluble”.
Consider “GMSDPRTQPLEIRPLMISRVMEVDWADGHTSRLTFEHLRVECPCAECKGHTPDQAQIVTGKEHVSVVEVVPVGHYAVQLHFSDGHNTGIFTWEYLRRLDAE”, for which the “soluble on expression in E. coli” value is “soluble”.
Take “MSLDNKNKSEVQAQETVQVSYKEKNRESSLASALDVLSRFGGFNFLESTVDGVQNLNPERKARKKIFLTDEQKQEEREVLKNKIDMWIDLLNSSSAVTEMIATSKAKSEAAASHLAKSQLVAVQSVRDMEQAYRGVMLFYKNTEADKVNNVTIVNASKEQLTDLDNPRFIDFVARELKQNYDKLDLRQNYSLLAIPGYLGSNKVLEKWAKIAYENKVMLYTDFADLDKPEDVVELFSSSNMASGEAFKSNTCMTCNWLVGRAGYREIGEEEDLHVSPSIALMGKVYTTLMSQVTAGKKYGGINEIDAVVFPLKKSEISQLEKMGLIPMVNEYGKVMAFSAKTLFNGDNLGLQTYSVVRVFDYITKVLFDFLNRRSFENWSSKTERDLRGQIVQYLDSVQGADRLIEKFKIIRFEQDQKQKDRIYLDIHMTPFFPAKSFVIKLDGTKGDDGTNWNTNYEEGHHHHHH”: the “soluble on expression in E. coli” value was “not soluble”.
For the sequence “MGSDKIHHHHHHMTQELTFSIKSLRFDEDYRPAANTRNTTNFANLARGQRRQENLRNTLAMINNRFNDLAHWDNPKRDRYAVELDIISVEMKIGERDTGDAFPLIEILQPSILDQTTGARIDGIAGNNFSSYVRDYDFSVLLPAHNQDTSSFSLPEGFGSLHGTLFKQFVNSDTYTARFAKPPVICISVSSSKVYHRTGNRHPILGVEYRQDAFSLTDQYFEKMGLQVRYFMPPNSVAPLAFYFLGDLLNDYTNLELIGTISTMETFQKIYRPEIYNANSAAGTIYQPSLKHQDYSATQIVYDRQERSQLAVTQGKFTQEHFIKPYGDILEQWASSHAFSSTPTQDIAHHE”, the “soluble on expression in E. coli” value is reported as “not soluble”.
Consider “MAPLLHQVSNYGYGKCVTVRFCDGKTYDAKDGESRAINRDLNVGAVKIYRDSKDEDQAYVLNYFPYNLELNDNRGKNKGLQGYRVLIWKQYGTINLDVFYDEMKIWCKTNDLGIYTSDGELKYYKSVIARHREEGGISVIGFETAEGATTAAAKKEEDENEEASAKVKEANEEESTNA”, for which the “soluble on expression in E. coli” value was “soluble”.
As for “MSLPRRPTSSAREGDGGKRSGHTFAAVEAIGRALPDVEVTTAWGQPALKVHGKMFVCVASHKSAEPNSLVVMMAFADRDALVEDDPATYYLRKHYLNHPCVLVRLTRIRLDALRDLVVGAHRLVNVQMRSKSDIGSQGTSRPLRDRREGHHHHHH”, the entry is “soluble”.
As for “MGSDKIHHHHHHLAKNNPISIPVSELRLGLTVKLPLSWTEHPFLINRIELKEQAQIEMIRGLKVQHVLVLAGAELLDEDVPKEEVPIEDDGFDEDMPERDVKREARVAIRKSQKRFLDCVNDSRSLVGKLGSDPEGAYRLSATLVEQMLEHLFEQEAAYLALVSAGEQGASVTQHGISVAVLSLMIAKSMDMPKKDMRDIALGALLHDIGKLRVPDNIRRKRGPLTTQEINFMNQHPNYGHEMLSRSGLFPEEVLHIIRHHHEFIDGTGFPGGLNGKKIPRTTQIVTLANDFEDQMTSHSIASPQVALGYLFKHRVGKHDEALIATLVKVLRHLSARYSGASHRRFFGKGDDDHPGSQAASGVGLQRRRRRPRPQNLDE”, the “soluble on expression in E. coli” value is listed as “not soluble”.
“MGSDKIHHHHHHMADRPHAEEGQTAGPAGQPGVAAWLDNQPPKWRPVASAIGSLELMTFFQFVLAAVLMSALPAHGADRIIYLTFDDGPLNGTSNILDVLEAEQVPATLFMVGMHAEAGASNKALVRRAKAMPLVTIGNHSYTHAYNHYRHFYGDTEGVVADMLMANVVLGLKPAVHARLPGRDVFRLPSMSKDDNSLGPAQAGREDPDYEFVAASGFYLYGWDHEWVHKDSGEPVQSVDHLVSEIDHLFGYGHFAKPGKLILLMHDEMFQDGFDGKTKLTDLITALKLRHYAFGTIPNYDH”: the “soluble on expression in E. coli” value was “not soluble”.
In the case of “MSLGLPKMEVFQEYYGLPPPPGAIGPFLRLNPGDIVELTKAEAEQNWWEGRNTSTNEIGWFPCNRVKPYVHGPPQDLSVHLWYAGPMERAGAESILANRSDGTFLVRQRVKDAAEFAISIKYNVEVKHIKIMTAEGLYRITEKKAFRGLTELVEFYQQNSLKDCFKSLDTTLQFPFKEPEKRTISRPAVGSTKYFGTAKARYDFCARDRSELSLKEGDIIKILNKKGQQGWWRGEIYGRVGWFPANYVEEDYSEEGHHHHHH”, the “soluble on expression in E. coli” value was “soluble”.
